What was measured:
[1] = biological target: VpOmpM1 (OmpM1 from Veillonella parvula), full length, expressed in E. coli (Veillonella parvula); assay: cryo-EM structure
[2] = biological target: VpOmpM1 stalk region (residues 22-107), soluble construct (Veillonella parvula); assay: crystal structure

| stoichiometry N [1] | stoichiometry N [2] | Substance |
| --- | --- | --- |
| 3 |  | VpOmpM1 (OmpM1 from Veillonella parvula), full length, expressed in E. coli (natural protein) |
|  | 3 | VpOmpM1 stalk region (residues 22-107), soluble construct (domain or fragment) |
